The target in this assay is T1, GFP-NBR1 (human, UniProt Q14596-1 1-966).
T1 construct: NBR1, human, ORF amplified from a HeLa cDNA library; The TEV site lies between StrepII and GFP, so the cleaved protein keeps GFP; also called 6xHis‐Strep‐TEV‐GFP‐NBR1; Strep‐TEV‐GFP‐NBR1; source: Sf9 insect cells (Bac-to-Bac), purified (HisTrap, TEV cleavage, Superose6); not shown: His6, N-terminal, cleaved; StrepII, N-terminal, cleaved; GFP (meGFP, A206K), N-terminal, kept
T1 sequence (looked up): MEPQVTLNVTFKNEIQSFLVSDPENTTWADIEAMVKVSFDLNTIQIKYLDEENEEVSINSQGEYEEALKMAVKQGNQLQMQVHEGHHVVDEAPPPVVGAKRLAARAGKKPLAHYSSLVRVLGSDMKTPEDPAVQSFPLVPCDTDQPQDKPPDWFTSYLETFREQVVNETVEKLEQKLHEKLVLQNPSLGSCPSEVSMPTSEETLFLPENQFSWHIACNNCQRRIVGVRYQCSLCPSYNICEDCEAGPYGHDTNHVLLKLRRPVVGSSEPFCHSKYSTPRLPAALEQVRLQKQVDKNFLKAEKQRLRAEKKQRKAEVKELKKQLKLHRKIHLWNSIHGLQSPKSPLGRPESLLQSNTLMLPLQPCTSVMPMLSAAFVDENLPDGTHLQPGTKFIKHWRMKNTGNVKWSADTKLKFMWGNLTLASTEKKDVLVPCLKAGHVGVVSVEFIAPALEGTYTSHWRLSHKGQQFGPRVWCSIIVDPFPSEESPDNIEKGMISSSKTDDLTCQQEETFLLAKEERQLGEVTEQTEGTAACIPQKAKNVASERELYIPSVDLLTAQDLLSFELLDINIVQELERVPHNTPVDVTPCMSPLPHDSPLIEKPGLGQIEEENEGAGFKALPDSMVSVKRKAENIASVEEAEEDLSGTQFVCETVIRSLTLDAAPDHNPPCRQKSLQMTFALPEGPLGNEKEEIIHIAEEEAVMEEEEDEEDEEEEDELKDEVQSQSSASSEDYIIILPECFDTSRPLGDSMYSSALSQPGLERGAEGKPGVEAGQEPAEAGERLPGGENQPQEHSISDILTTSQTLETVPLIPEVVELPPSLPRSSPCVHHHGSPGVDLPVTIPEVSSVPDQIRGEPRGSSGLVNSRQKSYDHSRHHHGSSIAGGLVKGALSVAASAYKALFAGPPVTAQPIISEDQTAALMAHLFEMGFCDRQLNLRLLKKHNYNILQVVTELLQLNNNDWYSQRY
Description: microscopy-based protein-protein interaction assay on beads; GFP-NBR1 on GFP-TRAP beads; 2 μM mCherry-p62 variants at equilibrium in 25 mM HEPES pH 7.5, 150 mM NaCl, 1 mM DTT; spinning disk imaging. The following applies: both partners purified.

B1: mCherry-p62 PB1 (1–102) (domain or fragment, UniProt Q13501 1-102, looked up)
chain: MASLTVKAYLLGKEDAAREIRRFSFCCSPEPEAEAEAAAGPGPCERLLSRVAALFPALRPGGFQAHYRDEDGDLVAFSSDEELTMAMSYVKDDIFRIYIKEK
notes: p62/SQSTM1, PB1 domain, residues 1-102; also called isolated PB1 domain of p62; source: recombinant, purified; site-directed mutagenesis on the plasmid for the full-length protein (pET-mCherry-p62 PB1); not shown: mCherry, N-terminal, kept
As to B1, the binding result is given as “binds”.

The values are drawn from publication PMC5830917 (The EMBO Journal, 2018).
